Results: patent US9937235B2, “Lipidated peptides as anti-obesity agents” (USTAV ORGANICKE CHEMIE A BIOCHEMIE AKADEMIE VED CR, V.V.I, priority 2012, dated 2018)
Where no end group is shown, it is not given here. [ ]: non-standard residue; d: D form. The star is where a group is joined. 1Nal = N[C@@H](Cc1cccc2ccccc12)C(=O)O; Myristoyl = CCCCCCCCCCCCCC(=O)*; Lauroyl = CCCCCCCCCCCC(=O)*; Nle = CCCC[C@H](N)C(=O)O; Octanoyl = CCCCCCCC(=O)*; Dap = NC[C@H](N)C(=O)O

T1: rat PrRP receptor in RC-4B/C cells (rat, UniProt Q64121 1-370)
T1 construct: whole, on cells; also called the rat receptor; GPR10
T1 sequence (looked up): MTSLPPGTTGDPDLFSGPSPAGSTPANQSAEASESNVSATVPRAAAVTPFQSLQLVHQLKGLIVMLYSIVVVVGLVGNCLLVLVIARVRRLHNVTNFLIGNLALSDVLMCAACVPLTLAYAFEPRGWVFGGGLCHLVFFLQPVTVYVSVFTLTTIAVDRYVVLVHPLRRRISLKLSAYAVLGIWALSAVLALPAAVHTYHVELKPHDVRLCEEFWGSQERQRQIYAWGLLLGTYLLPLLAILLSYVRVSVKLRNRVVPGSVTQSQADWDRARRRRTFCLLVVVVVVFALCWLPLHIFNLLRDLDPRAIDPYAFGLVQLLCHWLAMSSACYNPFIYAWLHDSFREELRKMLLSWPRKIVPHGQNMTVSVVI


Tests used:
[1] = target: T1, rat PrRP receptor in RC-4B/C cells; experiment: competition with 125I-rat PrRP31 on RC-4B/C cells
Procedure: (§1) The rat pituitary cell line RC-4B/C (ATCC, Manassas, USA) was grown on 24-well plates which had their bottom coated with polyethyleneimine. The cells were grown to the optimal density of 300-450 thousand per well.
(§2) Plates were incubated for 60 minutes at room temperature. After incubation, the cells were solubilized in 0.1 mol/l solution of NaOH and the radioactivity bound to the cells was counted using a γ-counter. The experiments were performed in duplicate and repeated at least three times.

[2] = target: T1, rat PrRP receptor in RC-4B/C cells; experiment: competition with 125I-rat PrRP31 on RC-4B/C cells; Ki by Cheng-Prusoff
Procedure: as §1, §2
For evaluation of competitive binding experiments, the program Graph Pad Prism Software (San Diego, Calif., USA) was used. A method of nonlinear regression assuming one-site binding was used.

Row | % of PrRP31 binding [1] [%] | Ki [2] [nM] | Binder
1 | 440 | 1.12 | [Dap](Lauroyl)RAHQHS[Nle]ETRTPDINPAWYTGRGIRPVGRF-NH2 (N-terminus assumed; SMILES CCCCCCCCCCCC(=O)NC[C@H](N)C(=O)N[C@@H](CCCNC(=N)N)C(=O)N[C@@H](C)C(=O)N[C@@H](Cc1c[nH]cn1)C(=O)N[C@@H](CCC(N)=O)C(=O)N[C@@H](Cc1c[nH]cn1)C(=O)N[C@@H](CO)C(=O)N[C@@H](CCCC)C(=O)N[C@@H](CCC(=O)O)C(=O)N[C@H](C(=O)N[C@@H](CCCNC(=N)N)C(=O)N[C@H](C(=O)N1CCC[C@H]1C(=O)N[C@@H](CC(=O)O)C(=O)N[C@H](C(=O)N[C@@H](CC(N)=O)C(=O)N1CCC[C@H]1C(=O)N[C@@H](C)C(=O)N[C@@H](Cc1c[nH]c2ccccc12)C(=O)N[C@@H](Cc1ccc(O)cc1)C(=O)N[C@H](C(=O)NCC(=O)N[C@@H](CCCNC(=N)N)C(=O)NCC(=O)N[C@H](C(=O)N[C@@H](CCCNC(=N)N)C(=O)N1CCC[C@H]1C(=O)N[C@H](C(=O)NCC(=O)N[C@@H](CCCNC(=N)N)C(=O)N[C@@H](Cc1ccccc1)C(N)=O)C(C)C)[C@@H](C)CC)[C@@H](C)O)[C@@H](C)CC)[C@@H](C)O)[C@@H](C)O, analog of rat PrRP31) [analog no. 3]
2 | 13 | 39.2 | [Dap](Octanoyl)RAHQHS[Nle]ETRTPDINPAWYTGRGIRPVGR[1Nal]-NH2 (N-terminus assumed; SMILES CCCCCCCC(=O)NC[C@H](N)C(=O)N[C@@H](CCCNC(=N)N)C(=O)N[C@@H](C)C(=O)N[C@@H](Cc1c[nH]cn1)C(=O)N[C@@H](CCC(N)=O)C(=O)N[C@@H](Cc1c[nH]cn1)C(=O)N[C@@H](CO)C(=O)N[C@@H](CCCC)C(=O)N[C@@H](CCC(=O)O)C(=O)N[C@H](C(=O)N[C@@H](CCCNC(=N)N)C(=O)N[C@H](C(=O)N1CCC[C@H]1C(=O)N[C@@H](CC(=O)O)C(=O)N[C@H](C(=O)N[C@@H](CC(N)=O)C(=O)N1CCC[C@H]1C(=O)N[C@@H](C)C(=O)N[C@@H](Cc1c[nH]c2ccccc12)C(=O)N[C@@H](Cc1ccc(O)cc1)C(=O)N[C@H](C(=O)NCC(=O)N[C@@H](CCCNC(=N)N)C(=O)NCC(=O)N[C@H](C(=O)N[C@@H](CCCNC(=N)N)C(=O)N1CCC[C@H]1C(=O)N[C@H](C(=O)NCC(=O)N[C@@H](CCCNC(=N)N)C(=O)N[C@@H](Cc1cccc2ccccc12)C(N)=O)C(C)C)[C@@H](C)CC)[C@@H](C)O)[C@@H](C)CC)[C@@H](C)O)[C@@H](C)O, analog of rat PrRP31) [analog no. 8]
3 | 167 | 2.95 | [Dap](Myristoyl)RAHQHS[Nle]ETRTPDINPAWYTGRGIRPVGR[1Nal]-NH2 (N-terminus assumed; SMILES CCCCCCCCCCCCCC(=O)NC[C@H](N)C(=O)N[C@@H](CCCNC(=N)N)C(=O)N[C@@H](C)C(=O)N[C@@H](Cc1c[nH]cn1)C(=O)N[C@@H](CCC(N)=O)C(=O)N[C@@H](Cc1c[nH]cn1)C(=O)N[C@@H](CO)C(=O)N[C@@H](CCCC)C(=O)N[C@@H](CCC(=O)O)C(=O)N[C@H](C(=O)N[C@@H](CCCNC(=N)N)C(=O)N[C@H](C(=O)N1CCC[C@H]1C(=O)N[C@@H](CC(=O)O)C(=O)N[C@H](C(=O)N[C@@H](CC(N)=O)C(=O)N1CCC[C@H]1C(=O)N[C@@H](C)C(=O)N[C@@H](Cc1c[nH]c2ccccc12)C(=O)N[C@@H](Cc1ccc(O)cc1)C(=O)N[C@H](C(=O)NCC(=O)N[C@@H](CCCNC(=N)N)C(=O)NCC(=O)N[C@H](C(=O)N[C@@H](CCCNC(=N)N)C(=O)N1CCC[C@H]1C(=O)N[C@H](C(=O)NCC(=O)N[C@@H](CCCNC(=N)N)C(=O)N[C@@H](Cc1cccc2ccccc12)C(N)=O)C(C)C)[C@@H](C)CC)[C@@H](C)O)[C@@H](C)CC)[C@@H](C)O)[C@@H](C)O, analog of rat PrRP31; also called myristoylated analog [Dpr^1 Nal^31]PrRP31 (No. 9)) [analog no. 9]
